According to patent US20220098681A1 (INSERM INSTITUTE NATIONAL DE LA SANT ET DE LA RECHERCHE M …, published 2022):

B1: FLAG-tagged CHIKV nsP3 (pCI-neo-3×FLAG plasmid expressing the CHIKV nsP3) (other)
chain: MAPSYRVKRMDIAKNDEECVVNAANPRGLPGDGVCKAVYKKWPESFKNSATPVGTAKTVMCGTYPVIHAVGPNFSNYSESEGDRELAAAYREVAKEVTRLGVNSVAIPLLSTGVYSGGKDRLTQSLNHLFTAMDSTDADVVIYCRDKEWEKKISEAIQMRTQVELLDEHISIDCDIVRVHPDSSLAGRKGYSTTEGALYSYLEGTRFHQTAVDMAEIHTMWPKQTEANEQVCLYALGESIESIRQKCPVDDADASSPPKTVPCLCRYAMTPERVTRLRMNHVTSIIVCSSFPLPKYKIEGVQKVKCSKVMLFDHNVPSRVSPREYRSSQESAQEASTITSLTHSQFDLSVDGEILPVPSDLDADAPALEPALDDGATHTLPSTTGNLAAVSDWVISTVPVAPPRRRRGRNLTVTCDEREGNITPMASVRFFRAELCPVVQETAETRDTAMSLQAPPSTATEPNHPPISFGASSETFPITFGDFNEGEIESLSSELLTFGDFLPGEVDDLTDSDWSTCSDTDDEL
B2: 6×His-FHL1A (other)
chain: AEKFDCHYCRDPLQGKKYVQKDGHHCCLKCFDKFCANTCVECRKPIGADSKEVHYKNRFWHDTCFRCAKCLHPLANETFVAKDNKILCNKCTTREDSPKCKGCFKAIVAGDQNVEYKGTVWHKDCFTCSNCKQVIGTGSFFPKGEDFYCVTCHETKFAKHCVKCNKAITSGGITYQDQPWHADCFVCVTCSKKLAGQRFTAVEDQYYCVDCYKNFVAKKCAGCKNPITGFGKGSSVVAYEGQSWHDYCFHCKKCSVNLANKRFVFHQEQVYCPDCAKKL

Legend:
[1] = target: T1, C-terminal HA-tagged FHL1A (human, UniProt Q13642-1 2-280); assay: co-immunoprecipitation, immunoblot (FIG. 4)
T1 sequence: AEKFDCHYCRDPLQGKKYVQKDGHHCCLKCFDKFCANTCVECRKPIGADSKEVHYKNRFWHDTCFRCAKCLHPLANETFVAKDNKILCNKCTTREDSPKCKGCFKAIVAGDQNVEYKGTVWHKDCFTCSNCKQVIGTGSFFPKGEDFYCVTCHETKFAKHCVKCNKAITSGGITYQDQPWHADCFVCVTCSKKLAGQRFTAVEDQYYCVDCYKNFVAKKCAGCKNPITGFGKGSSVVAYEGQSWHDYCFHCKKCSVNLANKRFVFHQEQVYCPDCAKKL

[2] = target: T2, C-terminal HA-tagged FHL2 (UniProt Q14192 1-279); assay: co-immunoprecipitation from co-transfected 293T cells
T2 sequence: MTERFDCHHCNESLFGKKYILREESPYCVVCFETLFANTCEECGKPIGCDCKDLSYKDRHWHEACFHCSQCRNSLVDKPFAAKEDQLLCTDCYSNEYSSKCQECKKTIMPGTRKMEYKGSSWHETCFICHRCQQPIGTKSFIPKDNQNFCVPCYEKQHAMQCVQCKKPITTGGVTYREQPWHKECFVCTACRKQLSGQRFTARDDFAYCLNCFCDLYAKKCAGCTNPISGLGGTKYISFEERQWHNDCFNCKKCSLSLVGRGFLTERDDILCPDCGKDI

G3BP1 = G3BP1 (UniProt Q13283 2-466); assay: co-immunoprecipitation in ΔFHL1 cells
GST-nsP3ΔHVD = target: T3, GST-nsP3ΔHVD (chikungunya virus, UniProt Q8JUX6 1334-1657); assay: GST pull-down with purified proteins, western blot with anti-FHL1
T3 chain: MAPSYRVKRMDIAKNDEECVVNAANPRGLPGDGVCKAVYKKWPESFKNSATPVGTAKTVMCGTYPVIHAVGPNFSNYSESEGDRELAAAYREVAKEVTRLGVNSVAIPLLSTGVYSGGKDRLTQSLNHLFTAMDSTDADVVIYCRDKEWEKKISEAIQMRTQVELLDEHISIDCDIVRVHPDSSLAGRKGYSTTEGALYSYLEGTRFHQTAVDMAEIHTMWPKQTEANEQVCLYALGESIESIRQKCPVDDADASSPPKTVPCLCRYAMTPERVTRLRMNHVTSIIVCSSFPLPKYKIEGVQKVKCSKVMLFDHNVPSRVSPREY

GST-nsP3 = target: T4, GST-nsP3 (chikungunya virus, UniProt Q8JUX6 1334-1856); assay: as above
T4 chain: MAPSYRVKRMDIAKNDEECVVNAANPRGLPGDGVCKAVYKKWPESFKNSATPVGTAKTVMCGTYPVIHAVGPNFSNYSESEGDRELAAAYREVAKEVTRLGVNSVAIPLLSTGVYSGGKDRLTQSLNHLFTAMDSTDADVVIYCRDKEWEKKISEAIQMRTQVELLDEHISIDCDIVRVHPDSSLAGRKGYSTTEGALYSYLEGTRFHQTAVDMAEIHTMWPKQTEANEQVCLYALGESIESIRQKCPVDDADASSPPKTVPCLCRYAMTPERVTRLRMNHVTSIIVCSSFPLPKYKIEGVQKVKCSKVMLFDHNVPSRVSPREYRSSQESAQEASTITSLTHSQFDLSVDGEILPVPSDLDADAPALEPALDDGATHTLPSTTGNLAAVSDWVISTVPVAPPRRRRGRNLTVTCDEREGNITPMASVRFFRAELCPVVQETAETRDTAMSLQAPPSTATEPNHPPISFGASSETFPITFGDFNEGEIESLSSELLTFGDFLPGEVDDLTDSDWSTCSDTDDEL

Sequence of G3BP1 (Q13283 2-466 limits assumed): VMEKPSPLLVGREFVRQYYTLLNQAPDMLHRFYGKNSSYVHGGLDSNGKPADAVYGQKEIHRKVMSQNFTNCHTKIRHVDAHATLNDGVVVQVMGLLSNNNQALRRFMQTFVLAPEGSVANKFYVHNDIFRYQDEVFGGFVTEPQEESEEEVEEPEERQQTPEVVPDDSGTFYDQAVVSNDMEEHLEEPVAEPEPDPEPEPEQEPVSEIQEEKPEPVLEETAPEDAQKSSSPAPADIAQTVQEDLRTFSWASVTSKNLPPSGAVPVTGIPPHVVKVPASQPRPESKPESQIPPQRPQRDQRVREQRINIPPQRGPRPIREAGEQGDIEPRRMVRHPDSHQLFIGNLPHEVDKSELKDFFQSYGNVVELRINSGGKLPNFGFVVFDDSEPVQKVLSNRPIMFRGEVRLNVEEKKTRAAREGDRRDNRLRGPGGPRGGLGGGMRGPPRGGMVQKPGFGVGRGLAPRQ

| Binder | binding result [1] | binding result [2] | binding result (G3BP1) | binding result (GST-nsP3ΔHVD) | binding result (GST-nsP3) |
| --- | --- | --- | --- | --- | --- |
| B1 | binds | binds | binds | – | – |
| B2 | – | – | – | no binding | binds |
